# From patent publication US20150125477A1 (IMMATICS BIOTECHNOLOGIES, published 2015)
# Biological target: T1, A*0201 (biotinylated pMHC monomer from UV-induced MHC ligand exchange) (human, biotin)
# T1 construct: pMHC complexes for aAPC loading and multimer read-out
# Assay: pMHC complex from UV-induced MHC ligand exchange, used as control
# Experimental: Generation of pMHC/anti-CD28 coated beads, T-cell stimulations and readout was performed in a highly defined in vitro system using four different pMHC molecules per stimulation condition and 8 different pMHC molecules per readout condition. […] In order to determine the amount of pMHC monomer obtained by exchange we performed streptavidin-based sandwich ELISAs according to (Rodenko et al., 2006). The purified co-stimulatory mouse IgG2a anti human CD28 Ab 9.3 (Jung et al., 1987) was chemically biotinylated using Sulfo-N-hydroxysuccinimidobiotin as recommended by the manufacturer (Perbio, Bonn, Germany). Beads used were 5.6 μm diameter streptavidin coated polystyrene particles (Bangs Laboratories, Illinois, USA).
# Half of the medium was then exchanged by fresh TCM supplemented with 80 U/ml IL-2 and incubating was continued for 3-4 days at 37° C. […] Finally, multimeric analyses were performed by staining the cells with Live/dead near IR dye (Invitrogen, Karlsruhe, Germany), CD8-FITC antibody clone SK1 (BD, Heidelberg, Germany) and fluorescent pMHC multimers. For analysis, a BD LSRII SORP cytometer equipped with appropriate lasers and filters was used. Peptide specific cells were calculated as percentage of total CD8+ cells. Evaluation of multimeric analysis was done using the FlowJo software (Tree Star, Oregon, USA).
binder,measurement,value
YLLPAIVHI (control for low immunogenic stimulation) [DDX5-001],binding result,binds
